According to PMC8224240 (Molecular cell, 2020):

Target: T1, human Smc6 with Strep-tag II (StreptagII-Smc6) (human, UniProt Q96SB8 1-1091)
T1 sequence (looked up): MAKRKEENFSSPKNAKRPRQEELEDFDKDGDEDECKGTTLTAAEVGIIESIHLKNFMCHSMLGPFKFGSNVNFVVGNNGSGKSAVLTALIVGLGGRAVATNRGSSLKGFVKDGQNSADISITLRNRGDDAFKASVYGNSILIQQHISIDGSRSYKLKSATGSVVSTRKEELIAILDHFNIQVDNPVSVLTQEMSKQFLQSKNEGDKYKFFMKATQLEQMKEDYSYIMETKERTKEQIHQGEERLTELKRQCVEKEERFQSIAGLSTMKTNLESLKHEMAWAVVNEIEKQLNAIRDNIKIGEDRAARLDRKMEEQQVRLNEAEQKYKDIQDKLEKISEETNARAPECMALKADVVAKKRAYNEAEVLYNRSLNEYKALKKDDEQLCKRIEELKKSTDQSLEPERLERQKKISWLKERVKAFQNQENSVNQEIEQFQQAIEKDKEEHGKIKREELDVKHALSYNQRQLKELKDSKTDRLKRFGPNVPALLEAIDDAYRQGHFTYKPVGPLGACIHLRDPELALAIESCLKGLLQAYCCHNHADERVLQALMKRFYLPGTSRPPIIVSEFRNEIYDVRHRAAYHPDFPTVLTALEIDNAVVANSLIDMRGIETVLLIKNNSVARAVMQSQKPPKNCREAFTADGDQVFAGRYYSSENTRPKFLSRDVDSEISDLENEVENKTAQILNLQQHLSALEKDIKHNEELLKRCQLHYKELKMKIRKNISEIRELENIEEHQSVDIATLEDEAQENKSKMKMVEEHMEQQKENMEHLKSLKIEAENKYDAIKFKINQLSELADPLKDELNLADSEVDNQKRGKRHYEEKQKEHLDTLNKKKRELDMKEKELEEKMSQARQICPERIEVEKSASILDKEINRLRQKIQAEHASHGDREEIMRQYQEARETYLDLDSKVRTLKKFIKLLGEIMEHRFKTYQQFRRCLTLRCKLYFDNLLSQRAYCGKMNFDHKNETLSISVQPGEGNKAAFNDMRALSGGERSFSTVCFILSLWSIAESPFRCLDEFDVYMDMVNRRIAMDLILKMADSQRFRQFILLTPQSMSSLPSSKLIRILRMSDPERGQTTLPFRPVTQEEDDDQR
Experiment: tandem affinity co-purification

B1: human Smc5 with poly-histidine tag (His-Smc5), subunit of the Smc5/6 dimer (natural protein, UniProt Q8IY18 1-1101, looked up)
chain: MATPSKKTSTPSPQPSKRALPRDPSSEVPSKRKNSAPQLPLLQSSGPFVEGSIVRISMENFLTYDICEVSPGPHLNMIVGANGTGKSSIVCAICLGLAGKPAFMGRADKVGFFVKRGCSRGMVEIELFRASGNLVITREIDVAKNQSFWFINKKSTTQKIVEEKVAALNIQVGNLCQFLPQDKVGEFAKLSKIELLEATEKSIGPPEMHKYHCELKNLREKEKQLETSCKEKTEYLQKMVQRNERYKQDVERFYERKRHLDLIEMLEAKRPWVEYENVRQEYEEVKLVRDRVKEEVRKLKEGQIPVTCRIEEMENERHNLEARIKEKATDIKEASQKCKQKQDVIERKDKHIEELQQALIVKQNEELDRQRRIGNTRKMIEDLQNELKTTENCENLQPQIDAITNDLRRIQDEKALCEGEIIDKRRERETLEKEKKSVDDHIVRFDNLMNQKEDKLRQRFRDTYDAVLWLRNNRDKFKQRVCEPIMLTINMKDNKNAKYIENHIPSNDLRAFVFESQEDMEVFLKEVRDNKKLRVNAVIAPKSSYADKAPSRSLNELKQYGFFSYLRELFDAPDPVMSYLCCQYHIHEVPVGTEKTRERIERVIQETRLKQIYTAEEKYVVKTSFYSNKVISSNTSLKVAQFLTVTVDLEQRRHLEEQLKEIHRKLQAVDSGLIALRETSKHLEHKDNELRQKKKELLERKTKKRQLEQKISSKLGSLKLMEQDTCNLEEEERKASTKIKEINVQKAKLVTELTNLIKICTSLHIQKVDLILQNTTVISEKNKLESDYMAASSQLRLTEQHFIELDENRQRLLQKCKELMKRARQVCNLGAEQTLPQEYQTQVPTIPNGHNSSLPMVFQDLPNTLDEIDALLTEERSRASCFTGLNPTIVQEYTKREEEIEQLTEELKGKKVELDQYRENISQVKERWLNPLKELVEKINEKFSNFFSSMQCAGEVDLHTENEEDYDKYGIRIRVKFRSSTQLHELTPHHQSGGERSVSTMLYLMALQELNRCPFRVVDEINQGMDPINERRVFEMVVNTACKENTSQYFFITPKLLQNLPYSEKMTVLFVYNGPHMLEPNTWNLKAFQRRRRRITFTQPS
- stoichiometry N: 1
